# In the supplement of paper PMC9112550, “Optimization of the antimicrobial peptide Bac7 by deep mutational scanning” (BMC Biology, 2022):
# Tested on: Escherichia coli TOP10
# Test: shrunken log2 fold change of peptide-encoding DNA abundance (4.5 h post-induction vs induction); higher = less antimicrobial activity (less host growth inhibition)
# Settings: time post-induction: 4.5 h; library: site-saturation at positions 5, 18, 19, 20
# 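Note: peptides expressed intracellularly from a pBAD plasmid library in pooled LB shake-flask culture, induced with 0.3% L-arabinose, DNA abundance read by NGS, three biological replicates, DESeq2 with apeglm shrinkage.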
row,Sequence,shrunken log2 fold change
1,RRIRRRPPRLPRPRPRPYSWPRP,-0.275
2,RRIRARPPRLPRPRPRPTCNPRP,0.327
3,RRIRLRPPRLPRPRPRPKVFPRP,0.0303
4,RRIRTRPPRLPRPRPRPGAGPRP,0.286
5,RRIRDRPPRLPRPRPRPLKEPRP,-0.277
6,RRIRIRPPRLPRPRPRPVAKPRP,-0.0157
7,RRIRKRPPRLPRPRPRPVVKPRP,-0.0849
8,RRIRPRPPRLPRPRPRPLAYPRP,-0.074
9,RRIRRRPPRLPRPRPRPQELPRP,0.158
10,RRIRIRPPRLPRPRPRPVPIPRP,-0.403
11,RRIRMRPPRLPRPRPRPAVVPRP,0.287
12,RRIRYRPPRLPRPRPRPWWWPRP,0.0798
13,RRIRTRPPRLPRPRPRPENIPRP,-0.0809
14,RRIRKRPPRLPRPRPRPPYPPRP,0.0247
15,RRIRLRPPRLPRPRPRPVHEPRP,0.0233
16,RRIRYRPPRLPRPRPRPTTLPRP,-0.0157
17,RRIRVRPPRLPRPRPRPGGLPRP,0.00797
18,RRIRPRPPRLPRPRPRPQLNPRP,-0.0703
19,RRIRVRPPRLPRPRPRPMGYPRP,-0.0568
20,RRIRYRPPRLPRPRPRPTVHPRP,-1.3
21,RRIRLRPPRLPRPRPRPQTSPRP,-0.106
22,RRIRYRPPRLPRPRPRPGHTPRP,-0.626

row,Sequence,shrunken log2 fold change
1,RRIRKRPPRLPRPRPRPFCIPRP,0.0646
2,RRIRSRPPRLPRPRPRPSTTPRP,-0.433
3,RRIRLRPPRLPRPRPRPQINPRP,-0.506
4,RRIRFRPPRLPRPRPRPDACPRP,0.0499
5,RRIRIRPPRLPRPRPRPACYPRP,-0.472
6,RRIRCRPPRLPRPRPRPQYGPRP,-0.142
7,RRIRWRPPRLPRPRPRPVCFPRP,0.376
8,RRIRRRPPRLPRPRPRPPLEPRP,0.739
9,RRIRYRPPRLPRPRPRPCMPPRP,-0.123
10,RRIRKRPPRLPRPRPRPNAKPRP,-0.0195
11,RRIRRRPPRLPRPRPRPVVFPRP,0.286
12,RRIRVRPPRLPRPRPRPKMQPRP,0.0937
13,RRIRDRPPRLPRPRPRPSWDPRP,0.199
14,RRIRERPPRLPRPRPRPDFPPRP,0.00147
15,RRIRIRPPRLPRPRPRPLPWPRP,-0.019
16,RRIRERPPRLPRPRPRPLKNPRP,-0.477
17,RRIRYRPPRLPRPRPRPQSFPRP,-0.0418
18,RRIRPRPPRLPRPRPRPINGPRP,-0.482
19,RRIRWRPPRLPRPRPRPWRPPRP,0.178
20,RRIRSRPPRLPRPRPRPQMMPRP,-0.143
21,RRIRERPPRLPRPRPRPNKLPRP,-0.596
22,RRIRPRPPRLPRPRPRPHTIPRP,-0.39

row,Sequence,shrunken log2 fold change
1,RRIRSRPPRLPRPRPRPVRTPRP,-0.0647
2,RRIRWRPPRLPRPRPRPYSAPRP,-0.147
3,RRIRDRPPRLPRPRPRPTFLPRP,0.196
4,RRIRLRPPRLPRPRPRPKIMPRP,-0.314
5,RRIRTRPPRLPRPRPRPNLRPRP,-0.184
6,RRIRHRPPRLPRPRPRPEELPRP,-0.00776
7,RRIRLRPPRLPRPRPRPRWVPRP,0.237
8,RRIRFRPPRLPRPRPRPWGWPRP,0.346
9,RRIRWRPPRLPRPRPRPFSIPRP,-0.228
10,RRIRQRPPRLPRPRPRPFYFPRP,-0.697
11,RRIRYRPPRLPRPRPRPLCSPRP,-0.0549
12,RRIRDRPPRLPRPRPRPTTCPRP,0.463
13,RRIRIRPPRLPRPRPRPKIEPRP,-0.0307
14,RRIRVRPPRLPRPRPRPPMHPRP,0.245
15,RRIRWRPPRLPRPRPRPPDIPRP,0.238
16,RRIRVRPPRLPRPRPRPNFPPRP,0.0508
17,RRIRRRPPRLPRPRPRPFARPRP,0.217
18,RRIRHRPPRLPRPRPRPYLNPRP,-1.2
19,RRIRPRPPRLPRPRPRPFRKPRP,-0.0819
20,RRIRARPPRLPRPRPRPTLRPRP,0.148
21,RRIRGRPPRLPRPRPRPPYVPRP,-0.21
22,RRIRQRPPRLPRPRPRPSTNPRP,-0.364

row,Sequence,shrunken log2 fold change
1,RRIRWRPPRLPRPRPRPCFAPRP,0.263
2,RRIRGRPPRLPRPRPRPQREPRP,0.225
3,RRIRHRPPRLPRPRPRPQCMPRP,-0.123
4,RRIRCRPPRLPRPRPRPQDIPRP,-0.213
5,RRIRIRPPRLPRPRPRPIPVPRP,-0.0943
6,RRIRKRPPRLPRPRPRPVLSPRP,0.3
7,RRIRWRPPRLPRPRPRPWDRPRP,0.215
8,RRIRCRPPRLPRPRPRPSFAPRP,-0.0835
9,RRIRDRPPRLPRPRPRPSEDPRP,0.00101
10,RRIRIRPPRLPRPRPRPCMEPRP,-0.799
11,RRIRPRPPRLPRPRPRPSPMPRP,-0.259
12,RRIRQRPPRLPRPRPRPESRPRP,-0.00904
13,RRIRARPPRLPRPRPRPTSDPRP,0.954
14,RRIRLRPPRLPRPRPRPNGCPRP,0.00888
15,RRIRARPPRLPRPRPRPQLIPRP,0.184
16,RRIRCRPPRLPRPRPRPLCYPRP,-0.439
17,RRIRYRPPRLPRPRPRPSKKPRP,-0.0925
18,RRIRKRPPRLPRPRPRPFLKPRP,0.0443
19,RRIRGRPPRLPRPRPRPRHAPRP,1.05
20,RRIRLRPPRLPRPRPRPVWFPRP,0.00279
21,RRIRARPPRLPRPRPRPDPFPRP,0.0855
22,RRIRYRPPRLPRPRPRPTALPRP,-0.0277

row,Sequence,shrunken log2 fold change
1,RRIRHRPPRLPRPRPRPYQQPRP,-0.032
2,RRIRHRPPRLPRPRPRPTRNPRP,-0.0346
3,RRIRARPPRLPRPRPRPSFAPRP,0.432
4,RRIRQRPPRLPRPRPRPLQNPRP,0.139
5,RRIRYRPPRLPRPRPRPKTDPRP,-0.863
6,RRIRTRPPRLPRPRPRPLYHPRP,-0.48
7,RRIRMRPPRLPRPRPRPKYKPRP,-0.0345
8,RRIRTRPPRLPRPRPRPCYIPRP,-0.226
9,RRIRVRPPRLPRPRPRPQFMPRP,-0.232
10,RRIRTRPPRLPRPRPRPYLPPRP,-0.513
11,RRIRYRPPRLPRPRPRPRISPRP,-0.218
12,RRIRSRPPRLPRPRPRPHRHPRP,-0.0713
13,RRIRGRPPRLPRPRPRPCWVPRP,-0.00887
14,RRIRCRPPRLPRPRPRPDMWPRP,0.104
15,RRIRKRPPRLPRPRPRPWWIPRP,-0.0457
16,RRIRCRPPRLPRPRPRPRTVPRP,0.0809
17,RRIRARPPRLPRPRPRPTAMPRP,0.822
18,RRIRARPPRLPRPRPRPIRAPRP,0.242
19,RRIRFRPPRLPRPRPRPHLPPRP,-0.0118
20,RRIRQRPPRLPRPRPRPWWGPRP,0.0786
21,RRIRLRPPRLPRPRPRPGALPRP,0.0546
